What is called Kd is the concentration at which binding is half-saturated.

In experiment [1] the target is human ACE2 peptidase domain (amino acids 1-615 of human ACE2 with C-terminal His-10 and Avi tags) (human) (UniProt Q9BYF1).
The target is the same in experiment [2]. The experiment is described as follows: biolayer interferometry; the reference KD of monomeric RBD is a literature value. (BLI is a label-free optical method that tracks binding on a fibre tip over time.)

UniProt Q9BYF1, sequence (Q9BYF1 18-615 limits assumed): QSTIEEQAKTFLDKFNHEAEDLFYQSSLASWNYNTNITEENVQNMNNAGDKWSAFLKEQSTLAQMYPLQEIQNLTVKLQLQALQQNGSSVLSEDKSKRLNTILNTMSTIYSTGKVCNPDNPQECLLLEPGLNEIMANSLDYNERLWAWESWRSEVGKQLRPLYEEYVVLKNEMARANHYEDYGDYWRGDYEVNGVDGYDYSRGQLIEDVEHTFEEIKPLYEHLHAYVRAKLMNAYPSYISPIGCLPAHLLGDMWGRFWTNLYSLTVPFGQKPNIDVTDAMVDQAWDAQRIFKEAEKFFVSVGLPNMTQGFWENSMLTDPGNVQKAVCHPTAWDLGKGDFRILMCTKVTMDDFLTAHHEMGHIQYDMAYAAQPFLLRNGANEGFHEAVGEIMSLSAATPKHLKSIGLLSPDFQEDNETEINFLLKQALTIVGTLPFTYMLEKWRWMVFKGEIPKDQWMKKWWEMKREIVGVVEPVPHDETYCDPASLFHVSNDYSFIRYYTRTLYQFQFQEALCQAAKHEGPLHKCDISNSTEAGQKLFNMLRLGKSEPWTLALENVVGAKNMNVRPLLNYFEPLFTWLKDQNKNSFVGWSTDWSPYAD

On to “trimerised SARS-CoV-2 S receptor-binding domain fused to the T4 fibritin foldon trimerisation domain (ligand; other documents disagree on this pair)”, for which the dissociation constant Kd in experiment [1] was 5 pM. The fold of the reported KD of monomeric RBD in experiment [2] was 1000 fold.

Values taken from patent US11547673.
